Our source for the stoichiometry N values is doi:10.1101/2021.07.22.453398.

By stoichiometry N is commonly meant the number of molecules, sites or subunits per partner or assembly.

Assay [1] addresses bison NHA2ΔN (structural construct, tag removed by TEV) (Bison bison). Briefly: cryo-EM structure.
Assay [2] shares this target. Briefly: cryo-EM structure. This is another data set of the same source.

Like-named read-outs stand apart in the source and are kept apart here.

Turning to “bison NHA2ΔN (structural construct, tag removed by TEV) (domain or fragment)”, the stoichiometry N in assay [1] and in assay [2] was 2 in each case.
